# Data reported in PMC3501490 (2012).
# T1: G6B-b dual phosphopeptide pY211/pY237 (Homo sapiens, UniProt O95866, pY211+pY237)
# T1 chain: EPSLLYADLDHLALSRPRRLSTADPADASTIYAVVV
# B1: SHP-1 tandem SH2 (protein)
# chain: WFHRDLSGLDAETLLKGRGVHGSFLARPSRKNQGDFSLSVRVGDQVTHIRIQNSGDFYDLYGGEKFATLTELVEYYTQQQGVLQDRDGTIIHLKYPLNCSDPTSERWYHGHMSGGQAETLLQAKGEPWTFLVRESLSQPGDFVLSVLSDQPKAGPGSPLRVTHIKVMCEGGRYTVGGLETFDSLTDLVEHFKKTGIEEASGAFVYLRQPY
# Target: T1, G6B-b dual phosphopeptide pY211/pY237
# Test: SPR
binder,measurement,value
B1,Kd,35.3 nM
